These results are taken from patent JP2020002075A.

The target of assay [1] is ポドプラニン (ポドプラニン提示CHO細胞, 種の記載なし). As to the kind of experiment: binding to podoplanin-displaying CHO cells; reference clone 1 scFv.
For assay [2], the target named is ポドプラニン (ポドプラニン提示CHO細胞, 種の記載なし). As to the kind of experiment: flow cytometry; cells and species not named at this place. For orientation: In flow cytometry, cells or beads pass a laser one at a time.

B1: clone 1から作製したdiabody (protein)
chain: EVQLKESGGGLVQSGGSLRLSCAASGFSLTDYGVNWVRQAPGKGLEWVGVIWGGGNTYYNSALKSRFTISKDNSKNTLYLQMNSLRAEDTAVYYCAKHRGAWGQGTLVTVSAGGGGSDIVMTQSPSTLAVSLGEKATINCKSSKSLLNSGNQKNYLIWYQQKPGQPPKLLIYGASTRESGVPDRFSGSVSGTDFTLTISSLQAEDLAVYYCQNDHTYPLTFGQGTKVEIKRTV
For B1, in assay [1], the fold increase of affinity against the scFv (clone 1) was found to be 100 fold. For the same molecule, the Kd – broadly, a measure of binding affinity in units of concentration – in assay [2] came out at 1.7 nM.
